From the DeepSol protein solubility set

experiment: soluble on expression in E. coli; label from the status in PepcDB or PDB records

Soluble on expression in E. coli, not soluble:
MIVTVTMNPSIDISYLLDHLKLDTVNRTSQVTKTPGGKGLNVTRVIHDLGGDVIATGVLGGFHGAFIANELKKANIPQAFTSIKEETRDSIAILHEGNQTEILEAGPTVSPEEISNFLENFDQLIKQAEIVTISGSLAKGLPSDFYQELVQKAHAQEVKVLLDTSGDSLRQVLQGPWKPYLIKPNLEELEGLLGQDFSENPLAAVQTALTKPMFAGIEWIVISLGKDGAIAKHHDQFYRVKIPTIQAKNPVGSGDATIAGLAYGLAKDAPAAELLKWGMAAGMANAQERMTGHVDVENVKKHLMNIQVVEIAK
MGSDKIHHHHHHMTTHSHTLTIAGQPLHYTDQGQGNTLVFIHGLLGNKVQWQSQIDALKANYRCIAIDLWGHGDSQTMPENTANLKDIASQLLSMLTALNINSCSLISLGTGCAIASEMALLSPKNINALVMINGFIGFEPEVNCVKYQGMLDEVQLNNGISTALAKQIATLFFNTQAQKTAVKTDTVTNAVTNEIESASVDSQISDKAMAALAQQLTEINAVQLSALVKFVPMAIYKRDTLEDVERFCLPSLILASNNNKLRTPLEAYLMQDTLDGSQLTQIPNAGHWVHLEQAEQLKQLISQFLQQH
VKDISMENLKKIFLGEVTNWKELGGKDQKIVILNRAAGSGTRATFEKWVLGDKTAIRAQEQDSSGMVRSIVSDTPGAISYTAFSYVTDEVATLSIDGVQPTDENVMNNKWIIWSYEHMYTRKNP
MNLFFDTELGKQQNKATHKIRVMSEAWLEKNGYCPCCGSKPMQRFANNKPVADLFCPNCHEQYELKSKNQKTIGNSVPDGAYHTMLERIRSDTNPNFFFLAYKKADYSIRQLVLVPKHFITPDMIIPRNKGIKNRPNHIMCSINLAPLPESGKIFLIDNSRIIEPETVLKKWQSNLFLRNQNAERKGWLLAVMKCIDQLPEEFTLSQMYEFENKLSIQFPQNNHIRDKIRQQLQILRDQNTIEFIGRGLYKKS
MGSDKIHHHHHHMSKANFPTDPALTAIAIAYRNRRMIADEVLPRTPVAKQEFTYLHYNLGEGFTVPNARVGRTSRPNQVEFGATQLTSSTEDFALDAPVPLVDIANKPTNYNPKGRATEQTTNLIELGREVRTANLVFNKKSYANGLTKTLSGNNQWSHDDSKPIADLLSALDTPVMRPNIMVLGQKAATALRTNKSIIKAYNGSLGDEGLVPLEYLKELFELEDIYVGQALINTVNQAKKAVLQQAWGNHCALIYRDRLADTNGGTTFGLTAQFGSREVRDIFDENMGMRGGYNVRVGESVKELITAPDLGFFLENVIA
MGSDKIHHHHHHMIDEIKSGKYKHGDKLPTEKELMERFNASRETVRKALERLVVKNLVIRKPGLGTFVNIEKKNKVVGILVQQITSYIFPYIALGAEEVLFANGYKMLLGNASEDPHKERQIINEWLEVGVDGLIIDPVYSATKRSNRDLIEDMAKKGTKVVLVHTNWDIEGVGSVVLDDWYGGEKAAEIFYQYGHRNVAVLYKTIHLPSVVRAQAFLKRGRELGFEKVHEKSFHVSEFTGIVMQSAFELLSLPKDQRPTAVFCYNDATALQFFLAAKRMGLKIPEDVSVIGFDDAPIGDFREILTTFEHPKEEVGKKAVEILLKMIDGEKPEKYVFKPKLIMRESVTYPKK
MGSDKIHHHHHHMTEKATLAKQILHFNETLSSNSMDLPAGYRVINPYEGDQKELVRNITTRFYQKYYNDTKPRRIIFGSSPARRGSAVTGVPFEDAKHLQSETGIFIDTFYINQSSSDFLYDVMNEYGGCEQFYSDFYMNFVCPLGIVRINAKGNEVNCNYYENKQLREALMPFIIESIRSQIDFGMDTSVCYCIGSGENFKFLSRINEEHHFFETIIPLEHPRFIMQYNSKNKDTYMEKYLCALKI
MSLAFVCLAIGCLYTFLISTTFGCTSSSDTEIKVNPPQDFEIVDPGYLGYMYLQWQPPLSLDHFKECTVEYELKYRNIGSETWKTIITKNLHYKDGFDLNKGIEAKIHTMLPWQCTNGSEVQSSWAETTYWISPQGIPETKVQDMDCVYYNWQYLLCSWKPGIGVLLDTNYNLFYWYEGLDHALQCVDYIKADGQNIGCRFPYLEASDYKDFYICVNGSSENKPIRSSYFTFQLQNIVKPLPPVYLTFTRESSCEIKMKWSIPLGPIPARCFDYEIEIREDDTTLVTATVENETYTLKTTNETRQLCFVVRSKVNIYCSDDGIWSEWSDKQCWEGEDLSKKTEGHHHHHH
MPDAQILSTHEHGVVVALGDIRTADSITTVVAGVGSANPTQWLNYVERAQHIQQATGGAAVAWLGYNAPANVAAAAAQTPAQQGASQLQKFQKELRTLNPKARLMVFGHSYGSVVAGHAVAHGLDADTFIVAGSPGVPPNPQLHSPNPRLISVLGSHDIIGLTGTNTVAAHGIDPSALSAQDAGFERWGVAGGHESYFTDKRLEHHHHHH
MTLVGECLSPHVTMAQRDHIRLEWRMPYRVLERTRQVAWTCFCRASVYELCEGGGQAFLRRTVQLDGKPTAHETSPCSISEARVIWTALLSGRAR
MVQSLNTKVDLVIDATAFTGLTDYGQIMIGDRGFEFYHAKDPRKFIQIPWEEVDYVLASVMFKGKWIPRYAIQTKKNGTYTFASKEPKRVLRAIREYVDPDHMVQSLSFFDVIKRGILSIGKKKK
MDVVKEIMAAIKQYETIIIHRHQRPDPDAIGSQVGLAELLRASFPEKNIYQVGGPVEGLEFLAEMDVITDDVYRGALVIVTDTANAPRISDARFSLGDQLIKIDHHPNDEPYGDLVWVNTNASSCSEIIVDFWQQHLAELTMTDNAARLLYAGIVGDTGRFLYPSTSAHTLAVAAQLRTFNFNAADLNRELDQMPLKVAKLAGYIYQNLEIDANGAARVVLPQSILNSYDIVDSETAAIVSMPGKIEDVLSWAIFVEQPEGYYRVRLRSKGPIINTIAKKHHGGGHPLASGANARDAAEIEVIYQEIQAACQEWAQK
MGSDKIHHHHHHMREIAASRISAVLAELIVKISTELGEDILTALHKAYEAEESPAGRDILQSLLENARIAKEKKIPLCQDTGTAIVFAEVGQEVHVTGNFTDAINLGVRQGYEQAYLRKSIVSHPFSKRINTNDNTPAVIHTEIVPGDRLKISFMAKGSGAENMSRLFMLKPGVGREGVIEAVLETVEKAGGSPCPPIIIGLGVGATAEKAMFMAKKALLRPLGITHTDPEVAALETEVLKQVNKLGIGPLGLGGRVTALGVMAETAPTHIASLPVAVNLQCHSARHGEAVL
WQENMLIPMMAINEDNLWVHQKYGYAIPRRNGKTEVVYILELWALHKGLKILHTAHRISTSHSSFEKVKKYLEMSGYVDGEDFISNKAKGQERIEFKSSGSVIQFRTRTSNGGLGEGFDLLIIDEAQEYTAEQESALKYTVTDSDNPMTIMCGTPPTMVSTGTVFESYRKECLKGDRRYSGWAEWSVDEMQPIHDVKSWYVANPSMGYHLNERKIEAELGEDEIDHNIQRLGYWPSFNQKSVISEKEWAKLKVEQVPELKSKLFVGIKFGQDGNNVSLSIAARASENKVFVEAIDCLSVRNGTQWIINFLKSADIAKVVVDGASGQELLAQEMREHGLKKPELPKVAEIITANTMWEQGIMQETICHNDQPSLTAVVTNCEKRQIGSNGGFGYKSLYDDRDISLMDSALLAHWICYTTKPKRKQRTSC
MGSDKIHHHHHHMIYDMSGIYLSSLTGIRNNSSSSSNSLDKEAFLRLLLQELEMQDPLEPMETKDMISQLSQLTSLEQITNLTSAVKDFVEAQTSVSPAQLASLIGKYVVVRNNTVNLVGGQSDSIIFNVDEDAHVVVQILDENGKLVRTEDLGTVQVGVHAWQWDGRDDNGISVEDGSYTYRVYKLTSSGLEEIGGMEGGVVEAVQIKDGKGFVLVNGSLYPVDSILEISQEGDA

Soluble on expression in E. coli, soluble:
MHHHHHHSSGVDLGTENLYFQSMGQCSVLLFPGQGSQVVGMGRGLLNYPRVRELYAAARRVLGYDLLELSLHGPQETLDRTVHCQPAIFVASLAAVEKLHHLQPSVIENCVAAAGFSVGEFAALVFAGAMEFAEGLYAVKIRAEAMQEASEAVPSGMLSVLGQPQSKFNFACLEAREHCKSLGIENPVCEVSNYLFPDCRVISGHQEALRFLQKNSSKFHFRRTRMLPVSGAFHTRLMEPAVEPLTQALKAVDIKKPLVSVYSNVHGHRYRHPGHIHKLLAQQLVSPVKWEQTMHAIYERKKGRGFPQTFEVGPGRQLGAILKSCNMQAWKSYSAVDVL
